# In PMC6413200:
# Biological target: pGE-LysRS-6xhis-SPARC fusion protein (not stated | Clonorchis sinensis)
# Assay: SEC; Ni-affinity fractions on a Superdex 200 Increase 10/300 GL or a Superose 6 Increase 10/300 column; 50 mM Tris-Cl (pH 7.5), 300 mM NaCl; 0.3 mL/min; molecular weight estimated from elution; samples from sonication and from mild lysis
substance,measurement,value
pGE-LysRS-6xhis-SPARC fusion protein,stoichiometry N,2
